Data: a protein production outcome set (Wang et al. 2014)

Experiment: label from the status in PepcDB records

## MSNIIVLSGSPRKGGNTDLLVDAFVKGAEKSNNVEVVSVAYYKVNPCIGCNSCFDRAGHECFQQDDMQIVYDKLKCADVIVVASPVYFYGVSAQLKAIIDRLHTPMRNDFKVKKLALILVGAAVLPELFDSIKIQYQLVLNFFKLEDAGMVLVRGAKDKGDVRNTDGLDEAYRLGLAME
  protein production: failed

## NLSELTPYILCSICKGYLIDATTITECLHTFCKSCIVRHFYYSNRCPKCNIVVHQTQPL
  protein production: not failed

## MSRTEGSHEAEQDLTMIVGTYTSGDSKGLYSFRFNEENGTATALSEAEVENPSYLVPSADGKFIYAVSEFSNEQAAANAFAFNKEEGTFRLLNTQKTGGEDPCYIITNGSNVVTANYSGGSISVFPIDKDGSLLPASEVVKFKGSGADKERQEKPHLHCVRITPDGKYLFADDLGTDQIHKFIVNPNAKADNEDVFLKEGSPASYKVEAGSGPRHLTFAPNGSYAYLINELSGTVIAFEYNDGELKEIQTIAADTVGAKGSGDIHISPDGKFLYASNRLKADGLAIFSIHPENGMLTKVGYQLTGIHPRNFIITPNGKYLLVACRDSNVIQVYERDTDTGLLTDIRKDIKVDKPVCIKFVPLEHHHHHH
  protein production: not failed

## MNLVGIVGTNSERSTNRKLLRFMAEHFAPQAAIEVLEIKDLPAFDEPENKTAPAAVTAFSKKIAAADGVIIATPEYNHTIPAPLGSALEWIAYTSRVLVNKPVMIVGCSLGALGTSRAQAHLRQILDAPELKARVMPGTEFFLGHSEHVLDDDFNLNNPEKVAELEEHFTEFQDFVIVTNQIVKQADTDRKLEHHHHHH
  protein production: not failed

## DGQTYQIGFEMRLPVSWNGRFLYQGNGGTDGNIATATGQVGSGGMLSNALKDGFAVISSDAGHSSAQNPLFGLDPQARINYGYGAITKLTPMAKDLIKTAYGKLPDRSYAGGTSNGGRHAMMAATRLGDQYDGILASTPGFHLPRAAAAQLYTAQQLRRVATDENDLSTALTYAERNVLANAILTRCDALDGVADGMVQDVEACRTAFDIHKDVPVCSGSRDGSCLSKDQIDVVANIYRGPVNSSGEALYATQPYDPGLLGSNWASWKFVSSVGTARDPVAVGIIFQVPPDPTIVQNSRKFAFNYNFDTDYPKLSATNSTYSESAMSFMIPPDELNLDKLRLHGGKMIVVQGTADGVFSVDDTQNWYDKLMAKYKSSSLGDAQSFARFYRVPGMNHSRGGLATDQFDALTALVNWVEYGQA
  protein production: failed

## MQQFHIRRLREEDIPLLKGLLVELDTSHYEAEPNFYRSPEEMAQLREERGVFDKYFDDSMIAFIACSHRQVVGFISGTVRDIDSMVSVAKRVGFVNELVVSESHRNLGIGLSLMDKIESDLCNQGIEEIGLTVASFNHEGEDFYHKMGYRVMTKMMSKRVKDLEHHHHHH
  protein production: not failed

## MTEILPHVNDEVLPAEYELNQPEPEHCPGPESDMAGKSDACGGCANKEICESLPKGPDPDIPLITDNLSGIEHKILVLSGKGGVGKSTFAAMLSWALSADEDLQVGAMDLDICGPSLPHMLGCIKETVHESNSGWTPVYVTDNLATMSIQYMLPEDDSAIIWRGSKKNLLIKKFLKDVDWDKLDYLVIDTPPGTSDEHISINKYMRESGIDGALVVTTPQEVALLDVRKEIDFCKKAGINILGLVENMSGFVCPNCKGESQIFKATTGGGEALCKELGIKFLGSVPLDPRIGKSCDMGESFLDNYPDSPASSAVLNVVEALRDAVGDV
  protein production: failed

## MENKRNVCSLGESSIKRHKSDLSFSSKERKDKVGERISALQQIVSPYGKFPCSFVQVLSAPYLQTVPDATQEELEQYSLRNRGLCLVPMENTVGVAQSNGADIWAPVKTPLSPAFSVTSQSPFR
  protein production: failed

## MNYSTLTSVLLCLLLGAPAWADHYQVVTEEWAPYNYEENGQLTGMTTEIVRAIMAVSGNDFNIVLAPSMRASHTLQMRPKTIMYSMFRTPEREVLYKWVGPIVEESVHPYQLATAAPVTSLEQLLHAPQITTRHAGLLPDMLQSLGFKNLDKSAAQSVQLYRMLLNGRTAIIIGDTDAGVAYQSRQLNIAPGTLRQIPIELYRSSLYIAFSRDCEDELVASWARALETLRQSGELERIQRRYEQLVGQ
  protein production: failed

## MQSYFSPLLDAMHAWLMLQLPGPVAGALLGGLHALVFIPLAALAWRVLSNESRRAQWVPLFALAGMCSAVFLSELGNTMGDTASAIPVLAALAVVLLAQFRARNGLHVVHLWAVAGALIGLAVALKLTNALYALALVPAVLCDGGRLRSRVLALSVLAGVALLVLLLVAGPWYWQVWQHLGNPLFPQFNGVFKSPLAQPVSIADVRWLPRTIGEQLIWPLLFTLKPQRIGDLGLVQAGWAVLYGVVAIAAGRALVRRPVRAAAVDRAAIVLLVFFGVAYALWQAIFSIHRYLVVLELLAPLVLWIVCRHAFAARANRKAAWLIGACALVAVVGWKDWGHESWARESFQVEQPVLGNPAASSVLLVGDEPQSWRVPLLPSQARYIGVATNISETDHYRQRVRALIAERPQLYAMLGAARDKQQVRIDRMNRLAQQFGWERQPGCSRLRWLVARGLRAELDTSQPDRCVLAIPKGKALDIAAADQAVREAAQQRLAAYGLTLDPARCRTLSSQVGQAVYPYQFCQLALPN
  protein production: failed

## METESEQNSNSTNGSSSSGGSSRPQIAQMSLYERQAVQALQALQRQPNAAQYFHQFMLQQQLSNAQLHSLAAVQQATIAASRQASSPNTSTTQQQTTTTQASINLATTSAAQLISRSQSVSSPSATTLTQSVLLGNTTSPPLNQSQAQMYLRPQLGNLLQVNRTLGRNVPLASQLILMPNGAVAAVQQEVPSAQSPGVHADADQVQNLAVRNQQASAQGPQMQGSTQKAIPPGASPVSSLSQASSQALAVAQASSGATNQSLNLSQAGGGSGNSIPGSMGPGGGGQAHGGLGQLPSSGMGGGSCPRKGTGVVQPLPAAQTVTVSQGSQTEAESAAAKKAEADGSGQQNVGMNLTRTATPAPSQTLISSATYTQIQPHSLIQQQQQIHLQQKQVVIQQQIAIHHQQQFQHRQSQLLHTATHLQLAQQQQQQQQQQQQQQQPQATTLTAPQPPQVPPTQQVPPSQSQQQAQTLVVQPMLQSSPLSLPPDAAPKPPIPIQSKPPVAPIKPPQLGAAKMSAAQQPPPHIPVQVVGTRQPGTAQAQALGLAQLAAAVPTSRGMPGTVQSGQAHLASSPPSSQAPGALQECPPTLAPGMTLAPVQGTAHVVKGGATTSSPVVAQVPAAFYMQSVHLPGKPQTLAVKRKADSEEERDDVSTLGSMLPAKASPVAESPKVMDEKSSLGEKAESVANVNANTPSSELVALTPAPSVPPPTLAMVSRQMGDSKPPQAIVKPQILTHIIEGFVIQEGAEPFPVGCSQLLKESEKPLQTGLPTGLTENQSGGPLGVDSPSAELDKKANLLKCEYCGKYAPAEQFRGSKRFCSMTCAKRYNVSCSHQFRLKRKKMKEFQEANYARVRRRGPRRSSSDIARAKIQGKCHRGQEDSSRGSDNSSYDEALSPTSPGPLSVRAGHGERDLGNPNTAPPTPELHGINPVFLSSNPSRWSVEEVYEFIASLQGCQEIAEEFRSQEIDGQALLLLKEEHLMSAMNIKLGPALKICAKINVLKET
  protein production: failed

## MFKTVIIMLMAVSAGTIGDILLAKGMKELGDLSAMNLRGILNVAGQALTSPKLIFGTAMLAIFFFLWLAVLSWEDLSVALPMQALNYVLVAFLSQWFLGETVSPLRWTGTIMVCVGVMLITKSGTP
  protein production: failed

## NNLFVYCEIEEGIVADVSLELLTKGRSLANELNCQLEAVVAGTGLKEIEKQILPYGVDKLHVFDAEGLYPYTSLPHTSILVNLFKEEQPQICLMGATVIGRDLGPRVSSALTSGLTADCTSLEIGDHEDKKEGKVYKNLLYQIRPAFGGNIVATIVNPEHRPQMATVREGVMKKEIVSPAYQGEVIRHDVKKYVADTDYVVKVIERHVEKAKNN
  protein production: not failed

## MQNNSYGYAVSVRVGGKEHRHWERYDIDSDFLIPADSFDFVIGRLGPEAAIPDLSGESCEVVIDGQIVMTGIIGSQRHGKSKGSRELSLSGRDLAGFLVDCSAPQLNVKGMTVLDAAKKLAAPWPQIKAVVLKAENNPALGKIDIEPGETVWQALTHIANSVGLHPWLEPDGTLVVGGADYSSPPVATLCWSRTDSRCNIERMDIEWDTDNRFSEVTFLAQSHGRSGDSAKHDLKWVYKDPTMTLHRPKTVVVSDADNLAALQKQAKKQLADWRLEGFTLTITVGGHKTRDGVLWQPGLRVHVIDDEHGIDAVFFLMGRRFMLSRMDGTQTELRLKEDGIWTPDAYPK
  protein production: not failed

## MTNLKLFNFEGSKVRTVILDEEPFFVGIDVASILGYSNPQKAMRDHCKKPAESLVNDSLGRPRRTLVLSESDVYRLVLRSDLPSAEKFENWLMDEVLPSIRKHGAYMTDDTIEKAITDPDFLIRLATNLKEEKSKRLEAEQKIEAQRPKVLFADAVSDTEGTILIRDLAKLIQQNGVDIGEKRLFEWLRQNGYLISRRGTDYNRPTQKSMELGLFKIKETAIMRSSGAHTAITAKVTGKGQLYFVNKFLEQSLVAN
  protein production: failed

## MQYLIVKYSHQIFVTITILVFNIRFFLLWKNPEKPLAGFWKALPHLNDTMLLFTGLWLMKITHFSPFNAPWLGTKILLLLAYIALGMMMMRARPRSTKFYTVYLLAMCCVACIVYLAKTKVLPF
  protein production: failed

## MTRSANPSLFLPLRAAWLALMRFQAKSGFVMSSHVAMSMMMALFPFILFTVALAGSLSQDLVTDDLIQLIFGTWPEQVATPIVAELKAVLAGANSRVMTVGGVLAVYFASNGVDAVREAMSRAYHDAETRPFWKTRLLCIAIVVGGGAIVLAVAAFEVVMPIYTRLVTDALPGAAPDWLSVERLSWIFVVAMPAGAVLACHALLPAGRHPLRRILPGVVLTLVLWAGCGWGFSLYIANFASYSTTYAGLAGAMAALIFLYLNAAILILGAEFNGALMDLSGGPD
  protein production: not failed

## TFVCASAGNHAQGFAFVCRHFGVPGVVFMPVTTPQQKIDKTRMFGAEFITIRLVGDIFDQCYKAAREHVEAIGGVMVPPFDHDDIIEGQATVAAEIAEQLPAGPVADLVVLPVGGGGLAAGVTGYLGDSLSADRFLFCEPEGAPSFRRSLELGGVVTLDQVDNFVDGAAVARIGDLNFAALRRFSPEQVMLLPENAICLTITEMLNVEGVVLEPAGALAITALEALGRDSLEGKIVVAVVSGGNF
  protein production: failed

## MPMTLDLQPGQRLARGVARHLRAHGFVSVEEFVPARGLRVDVMGLGPKGEIWVIECKSSRADFQADAKWQGYLEWCDRYFWAVDMEFPAELLPAESGLLIADAYDAEIVRMAPEQKLAPARRKVLIQKFATHAARRLQALRDPEGHGIFE
  protein production: not failed

## MKTKPQAPHVDFYEKSELLHFLDCASKHENPQAFMFFRLLAFTGLRRGEALALQWSDINFETNELTVNKTQAVGKRWRTIIQTPKTNTSYRTIVLDPDTAQWLHKWKMTQARQCFELGFNANDPSQLVFTNQQNKLMSPSTVNYFNWSICKKYGLRHIKIHAFRHTFCTLAFEAHAGINEVSKTLGHADLKITEQIYLHVTKKQKNETASKLARYMSELLEHHHHHH
  protein production: not failed

## MKVFITGGTGFVGSAVVQELVANGFEVVGLARSETSAQKLISWGAQPVRGSLTSLSTLATAAAQADAIIHLGFNNDFRHFFQAGAMDRRAIETMGRAISGTNKPLVVTYGTTGIRKHVETEHEVADTGLLKWLTPRKSEIVARQLMAQNINAFVVRLSPAVHGAGDMGFTRTVIERAKKSHRAEYFGLGTHAWSAVHRLDAAHLFYLVTMYGLEHPTTNERVFNAVAEESITIAAIARTISRKLNVPLKAKYNPLSFGDTAMLYLINCPTSSQLTRQILGWVPVQPDLLTDISSSRYLEHHHHHH
  protein production: failed

## MTKRFKLKISRILSFKSCRLKDPSSLPFNPVSSSLRRTSPLVNSSADVTTVPQRRRSSFRLHVLTVFGCGRSSTPLDVDLRNSPVLSPPQTPTFQWESEGKWHVIAQVTEEEYETPRRKIYNGGSEKDNRRRLKKKEKSNSRRRGSISSAEEETDRESLLPSSTNLSPEYSSSELPRVTRRPRQLLKKAVIEEESESSSPPPSPARLSSFVQRLMPCTMAAAVMVEGVAVVKKSEDPYEDFKGSMMEMIVEKKMFEVAELEQLLSCFLSLNAKRHHRAIVRAFSEIWVALFSGGSGGGRRSSSFSSVRLSDYDEC
  protein production: failed
